In US10465009B2, “BCMA antigen binding proteins” (Amgen Inc., priority 2012, dated 2019):

Assays:
BCMA = molecular target: T1, BCMA (Homo sapiens, UniProt Q02223, N81S); experiment: FACS binding on cells transiently transfected to express full length BCMA; details: MFI vs negative control
T1 construct: cells transiently transfected to express full length BCMA, TACI, or BAFF-R; expressed in transfected cells
T1 sequence (Q02223 1-184 N81S): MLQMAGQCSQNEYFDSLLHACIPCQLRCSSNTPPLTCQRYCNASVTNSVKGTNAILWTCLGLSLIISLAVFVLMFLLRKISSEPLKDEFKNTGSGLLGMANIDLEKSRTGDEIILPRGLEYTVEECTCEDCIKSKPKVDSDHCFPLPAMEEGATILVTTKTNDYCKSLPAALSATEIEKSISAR
Protocol: An important criterion is exquisite selectivity for wild-type human BCMA expressed on the surface of cells. FACS binding on cells transiently transfected to express full length BCMA, TACI, or BAFF-R was performed using standard techniques. Approximately 40×10^6 of the transiently-transfected target cells were resuspended in a staining solution (2% goat serum, 1% rabbit serum, 0.02% azide in PBS) and aliquoted into round-bottom, 96-well plate (Corning Incorp., Acton, Mass.) as per the experiment design. The cells were incubated at 4 degrees celsius for 30 minutes to block non-specific sites. The antibodies were titrated into the staining solution. The cells were rinsed in a rinse solution (PBS+0.02% azide) by resuspending the cells in 200 ul/well. The cells were centrifuged at 1500 rpm at 4 degrees celsius for 7 minutes. The rinse solution was removed and the rinse step was repeated. The cells were resuspended in the appropriate antibody solution (see the matrix in TABLE 4) at 30 ul/well and incubated at 4 degrees celsius for 30 minutes. […] For the mouse IgG1 negative control and the two mouse antibodies (1.183 and 1.288), the secondary reagent was an anti-mouse IgG-PE conjugate (BD Pharmingen Cat. 550589). The cells/antibodies were rinsed as described above to remove excess/unbound antibody. […] Samples were read at 532 nm wavelength on FACS. […]

huBCMA on H929 cells = molecular target: T2, huBCMA on H929 cells (Homo sapiens, UniProt Q02223, N81S); experiment: FACS binding to native BCMA on H929 myeloma cells; details: flow cytometry; muteins relative to parental 2A1
T2 construct: endogenous in cells; host or cells: H929 human multiple myeloma cell line
T2 sequence (Q02223 1-184 N81S): T1 sequence (Q02223 1-184 N81S)
Protocol: Approximately 10 to 40×10^6 of H929 myeloma cells were resuspended in a staining solution (2% goat serum, 1% rabbit serum, 0.02% azide in PBS) and aliquoted into round-bottom, 96-well plate (Corning Incorp., Acton, Mass.) as per the experiment design. The cells were incubated at 4 degrees celsius for 30 minutes to block non-specific sites. The antibodies were titrated into the staining solution. The cells were rinsed in a rinse solution (PBS+0.02% azide) by resuspending the cells in 200 ul/well. The cells were centrifuged at 1500 rpm at 4 degrees celsius for 7 minutes. The rinse solution was removed and the rinse step was repeated. […] The huIgG1 negative control's secondary reagent was a biotinylated anti-huIgG (Jackson Labs, Bar Harbor, Me., Cat. 109-065-098), followed by a streptavidin-phycoerythrin (SA-PE) conjugate (BD Pharmingen, San Diego, Calif., Cat. 554061). […] The cells/antibodies were rinsed as described above to remove excess/unbound antibody. […] Samples were read at 532 nm wavelength on FACS.
To further characterize the engineered mutein antibodies, they were tested for the ability to bind BCMA by FACS analysis. […] The supernatants were removed and the cell pellets were resuspended in 0.2 mL/tube 4% paraformaldehyde in PBS and analyzed by flow cytometry

B1: 1E1: fully human anti-huBCMA mAb, Vh SEQ ID NO:212, Vl SEQ ID NO:246 (antibody, V domains shown)
VH: QVQLVQSGAEVKKPGASVKVSCKASGYTFTGHYIHWVRQAPGQGLEWMGWIYPNSGGTNYAQKFQGRVTMTRDTSISTAYMELSRLRSDDSAVYYCAREGMVTGDYYYYRMDVWGQGTTVIVSS
VL: QPVLTQPPSASASLGASVTLTCSLSSGYSNYKVDWYQQRPGKGPRFVMRVGIGGIVGSKGDGIPDRFSVLGSGLNRYLTIKNIQEEDESDFHCGADHGSGNNFVYVFGTGTKVTVLG
BCMA (FACS binding) (BCMA): + (A sample was considered positive for binding if the MFI was two times the negative control value)
binding to BCMA on H929 cells (huBCMA on H929 cells): bound to human BCMA
